Substitutions are numbered along the chain they refer to.
What was measured:
[1] = test system: ADGRF1; test: Identification of phospholipid ligands by LC–MS/MS; assay type: binding, human
Description: The identification of phospholipids specifically bound to ADGRF1 was performed as previously described[33],[50] with minor modifications. In brief, ADGRF1 and control ADGRD1 protein were reduced with 5 mM TCEP at 25 °C for 30 min and alkylated with 20 mM idoacetamide at 25 °C for 30 min. Then the protein samples were digested with trypsin (Promega) at an enzyme-to-protein ratio of 1:50 (w/w) at 37 °C overnight. The digested proteins were dried in a vacuum concentrator and then extracted with 400 μl of ice-cold methanol:water (9:1, v/v) by vortex and sonication. After centrifugation at 12,000g for 15 min at 4 °C, the supernatants were collected and lyophilized under vacuum. The lipid extracts were resuspended in methanol:chloroform (9:1, v/v) to an equivalent concentration of 2 μM. Samples were analysed on a Q Exactive mass spectrometer (Thermo Fisher Scientific) operating in the positive ion mode coupled to a Waters Acquity UPLC system (Waters). […] The specificity of lipid binding to ADGRF1 was assessed by the ratio of EIC peak areas for each lipid in the ADGRF1 versus the control sample. […]

[2] = test system: ADGRF1; settings: cited from earlier work
[3] = test system: neurogenesis, neuritogenesis and synaptogenesis; settings: ref [35]; cited from earlier work
[4] = target: T1, ADGRD1 (GPR133), residues T545–T827 (ADGRD1-construct) (human) (UniProt Q6QNK2)
T1 sequence: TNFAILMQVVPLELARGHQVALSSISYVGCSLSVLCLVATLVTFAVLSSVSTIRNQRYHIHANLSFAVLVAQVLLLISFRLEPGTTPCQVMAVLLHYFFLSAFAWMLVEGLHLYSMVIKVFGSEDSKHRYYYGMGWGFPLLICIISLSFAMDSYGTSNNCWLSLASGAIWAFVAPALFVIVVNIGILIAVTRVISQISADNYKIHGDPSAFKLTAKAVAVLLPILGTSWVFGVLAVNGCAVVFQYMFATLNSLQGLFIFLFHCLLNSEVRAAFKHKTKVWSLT

[5] = test system: ADGRD1; test: Cell-surface expression by flow cytometry, ADGRD1; assay type: cell-based, human; settings: ADGRD1 constructs (pD1 Gs part of table), anti-Flag antibody, three independent measurements in duplicate
Description: The wild-type ADGRD1 and ADGRF1 and mutants used in functional studies were constructed into a pTT5 vector with a Flag tag at the N terminus for receptor expression measurement. The basal activity of ADGRD1 and ADGRF1 in mediating Gs signalling was measured by a cAMP accumulation assay using a LANCE Ultra cAMP detection kit (PerkinElmer) following the manufacturer’s instruction. In brief, 2 ml HEK293F cells (Invitrogen; cells were routinely tested for mycoplasma contamination) at a density of 1.2 × 10^6 cells per ml were transiently transfected with 2,000 ng plasmid of the wild-type or mutant receptor and cultured at 37 °C for 48 h with 5% CO2 atmosphere in a shaker shaking at 220 rpm. After collection, the cell-surface expression of the receptors was measured by incubating 10 μl cells with 15 μl monoclonal anti-Flag M2-FITC antibody (Sigma; 1:120 diluted in TBS supplemented with 4% BSA and 20% viability staining solution 7-AAD (Invitrogen)) at 4 °C for 20 min. After incubation, 175 μl TBS buffer was added and the fluorescent signal was measured using a flow cytometry reader (Guava easyCyte HT, Millipore).

[6] = target: T2, ADGRF1 (GPR110), residues V251–K860 (ADGRF1-construct 1) (human) (UniProt Q5T601)
T2 sequence: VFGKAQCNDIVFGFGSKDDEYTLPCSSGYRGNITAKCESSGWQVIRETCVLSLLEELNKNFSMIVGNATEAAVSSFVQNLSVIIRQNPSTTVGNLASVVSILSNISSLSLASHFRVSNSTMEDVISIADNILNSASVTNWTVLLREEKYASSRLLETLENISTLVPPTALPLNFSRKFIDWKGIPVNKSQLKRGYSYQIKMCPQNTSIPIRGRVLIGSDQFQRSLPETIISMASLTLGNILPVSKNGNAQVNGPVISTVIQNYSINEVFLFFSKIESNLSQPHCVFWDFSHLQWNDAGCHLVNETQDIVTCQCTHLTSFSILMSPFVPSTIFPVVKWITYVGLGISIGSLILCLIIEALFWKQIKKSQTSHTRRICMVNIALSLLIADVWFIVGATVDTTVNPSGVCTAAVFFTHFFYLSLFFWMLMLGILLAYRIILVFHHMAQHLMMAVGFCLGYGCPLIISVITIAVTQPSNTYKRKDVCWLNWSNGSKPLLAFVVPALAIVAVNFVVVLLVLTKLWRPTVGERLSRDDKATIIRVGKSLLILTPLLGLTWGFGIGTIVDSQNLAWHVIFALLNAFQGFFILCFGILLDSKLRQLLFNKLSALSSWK

CCCCCCCCCCCCCCCC(=O)OC[C@@H](O)COP(=O)([O-])OCC[N+](C)(C)C [LPC 16:0]
specific binding to ADGRF1 (lipidomics) ([1]; ADGRD1 as control, specific binder: mean EIC ratio > 2 and P < 0.05, n = 3): bound specifically to ADGRF1
EIC peak ratio, ADGRF1 versus ADGRD1 (mean) ([1]; ADGRD1 protein as control, methanol:water lipid extract, P < 0.05, three independent experiments): > 2

CC/C=C\C/C=C\C/C=C\C/C=C\C/C=C\C/C=C\CCC(=O)NCCO [synaptamide, N-docosahexaenoylethanolamine]
stalk dependence of ADGRF1 activation ([2]; believed to act through the extracellular GAIN domain, ref [36]): activates the receptor in a stalk-independent manner
agonism at ADGRF1 ([2]; ref [35]): endogenous small-molecule agonist for ADGRF1
neurogenesis, neuritogenesis and synaptogenesis [3]: promotes neurogenesis, neuritogenesis and synaptogenesis

TSFSILMSPFVP [synthetic stalk peptide of ADGRF1 (pF1)]
fold decrease in G protein activation of wild-type ADGRD1 in HEK293F cells (BRET assay with TRUPATH biosensors): potency of pF1 against that of pD1 [4]: 59 fold

B1: F716^5.36bA (protein, UniProt Q6QNK2 26-874, looked up, variant F716A)
Adhesion G-protein coupled …: VYSRSQDHPGFQVLASASHYWPLENVDGIHELQDTTGDIVEGKVNKGIYLKEEKGVTLLYYGRYNSSCISKPEQCGPEGVTFSFFWKTQGEQSRPIPSAYGGQVISNGFKVCSSGGRGSVELYTRDNSMTWEASFSPPGPYWTHVLFTWKSKEGLKVYVNGTLSTSDPSGKVSRDYGESNVNLVIGSEQDQAKCYENGAFDEFIIWERALTPDEIAMYFTAAIGKHALLSSTLPSLFMTSTASPVMPTDAYHPIITNLTEERKTFQSPGVILSYLQNVSLSLPSKSLSEQTALNLTKTFLKAVGEILLLPGWIALSEDSAVVLSLIDTIDTVMGHVSSNLHGSTPQVTVEGSSAMAEFSVAKILPKTVNSSHYRFPAHGQSFIQIPHEAFHRHAWSTVVGLLYHSMHYYLNNIWPAHTKIAEAMHHQDCLLFATSHLISLEVSPPPTLSQNLSGSPLITVHLKHRLTRKQHSEATNSSNRVFVYCAFLDFSSGEGVWSNHGCALTRGNLTYSVCRCTHLTNFAILMQVVPLELARGHQVALSSISYVGCSLSVLCLVATLVTFAVLSSVSTIRNQRYHIHANLSFAVLVAQVLLLISFRLEPGTTPCQVMAVLLHYFFLSAFAWMLVEGLHLYSMVIKVFGSEDSKHRYYYGMGWGFPLLICIISLSFAMDSYGTSNNCWLSLASGAIWAAVAPALFVIVVNIGILIAVTRVISQISADNYKIHGDPSAFKLTAKAVAVLLPILGTSWVFGVLAVNGCAVVFQYMFATLNSLQGLFIFLFHCLLNSEVRAAFKHKTKVWSLTSSSARTSNAKPFHSDLMNGTRPGMASTKLSPWDKSSHSAHRVDLSAV
Cell-surface expression (% of WT) [5]: 98 ± 3 % of WT

B2: Q798^7.49bA (protein, UniProt Q6QNK2 26-874, looked up, variant Q798A)
Adhesion G-protein coupled …: B1 Adhesion G-protein coupled … with A691F, Q773A
Cell-surface expression (% of WT) [5]: 96 ± 18 % of WT

B3: W773^6.53bA (protein, UniProt Q6QNK2 26-874, looked up, variant W773A)
Adhesion G-protein coupled …: B1 Adhesion G-protein coupled … with A691F, W748A
Cell-surface expression (% of WT) [5]: 69 ± 2 % of WT

B4: H656^3.53bA (protein, UniProt Q6QNK2 26-874, looked up, variant H656A)
Adhesion G-protein coupled …: B1 Adhesion G-protein coupled … with H631A, A691F
Cell-surface expression (% of WT) [5]: 86 ± 10 % of WT

B5: K760^6.40bA (protein, UniProt Q6QNK2 26-874, looked up, variant K760A)
Adhesion G-protein coupled …: B1 Adhesion G-protein coupled … with A691F, K735A
Cell-surface expression (% of WT) [5]: 126 ± 21 % of WT

B6: H605^2.50bA (protein, UniProt Q6QNK2 26-874, looked up, variant H605A)
Adhesion G-protein coupled …: B1 Adhesion G-protein coupled … with H580A, A691F
Cell-surface expression (% of WT) [5]: 102 ± 7 % of WT

TNFAILMQVVPLE [synthetic stalk peptide of ADGRD1 (pD1)]
G protein activation of wild-type ADGRF1 in HEK293F cells (BRET assay with TRUPATH biosensors): EC50 of pD1 against that of pF1 [6]: 2 fold

— article PMC9046087, “Structural basis of tethered agonism of the adhesion GPCRs ADGRD1 and ADGRF1” (Nature, 2022)
